Measured values from the nanobody polyreactivity screen of Harvey et al. (2022).

Assay: yeast display, Sf9 membrane polyspecificity reagent, FACS + sequencing; frameworks hold sequencing errors
Procedure, shortened: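 Nanobodies from a synthetic yeast display library (Saccharomyces cerevisiae BJ5465), induced 36–48 hours with galactose, were stained 1 hour at 4 °C with 10% biotinylated, detergent-solubilized Sf9 membrane reagent, enriched on streptavidin microbeads, then FACS-sorted. Anti-HA (expression) and streptavidin (reagent binding) fluorescence set low and high (top ~1%) gates. Polyreactivity labels come from the gate of origin. Genes were colony-PCR amplified, MiSeq 2 × 250 sequenced and filtered by CDR length.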

Sequence	polyreactivity (PSR sort gate)
QVQLVESGGGLVQAGGSLRLSCAASGRIFFGYAMGWYRQAPGKERELVASISRGGSTNYADSVKGRFTISRDNAKNTVYLEMNSLKPEDTAVYYCAASRRRWSQQQGYGYYYWGQGTQVTVSS	high polyreactivity
QVQLVESGGGLVQAGGSLRLSCAASGRIFFKNAMGWYRQAPGKERELVAAITWSGGRTYYADSVKGRFTISRDNAKNTVYLQMNSLKPEDTAVYYCNALAPSPYDWGQGTQVTVSS	high polyreactivity
QVQLVESGGGLVQAGGSLRLSCAASGRIFFKNTMGWYRQAPGNESELVAAITSSGSSTYYADSVKARFTISRDNSKNNVYLQMNSLKPEDTAVYYCNALTWDHSRTGVDYWGQGTQVTVSS	low polyreactivity
QVQLVESGGGLVQAGGSLRLSCAASGRIFFLNAMGWYRQAPGKERELVATISWTGGSTYYADSVKGRFTISRDNAKNTVDLQMTSLKPEDTAGYYCAKDGTNWGHAFDSWGQGTEVTVSS	low polyreactivity
QVQLVESGGGLVQAGGSLRLSCAASGRIFFNYAMGWYRQAPGKERELVAAITRSGGRTYYADSVKGRFTISRDNAKNTVYLQMNSLKPEDTAVYYCAADSGSRGSVAHEYWGQGTQVTVSS	high polyreactivity
QVQLVESGGGLVQAGGSLRLSCAASGRIFFRNAMGWYRQAPGKERELVAVINTGGSTNYADSVKGRFTISRDNAKNTVYLQMNSLKPEDTAVYYCAVDRASRRTYNQYGYWGQGTQVTVSS	high polyreactivity
QVQLVESGGGLVQAGGSLRLSCAASGRIFFRNTMGWYRQAPGKERELVAAISGSGGSTYYADSVKGRFTISRDNAKNTVYLQMNSLKPEDTAVYYCAKRWLYPISYDYWGQGTQVTVSS	high polyreactivity
QVQLVESGGGLVQAGGSLRLSCAASGRIFFRYVMGWYRPAPGKERELVATSTRSGGTTYYADSVKGRFTISRDNAKNTVYLQMNSLKPEDTAVYYCATDYTYHRVGPLYGFWGQGTQLTVSS	low polyreactivity
QVQLVESGGGLVQAGGSLRLSCAASGRIFFWYVMGWYRQAPGKERELVAAISSGGRTYYADSVKGRFTISRDNAKNTVYLQMNSLKPEDTAVYYCNVEEYHVRADIGYSNYGYWGQGTQVTVSS	low polyreactivity
QVQLVESGGGLVQAGGSLRLSCAASGRIFFYYAMGWYRQAPGKERELVATISYSGGCTYYADSVKGRFTISRDNAKNTVYLQMNSLKPEETAVYYCNARWGTPYYIQDFDYWGQGTQVTVSS	low polyreactivity
QVQLVESGGGLVQAGGSLRLSCAASGRIFGAYAMGWYRQAPGKEREFVAAITWRGGSTYYADSVKGRFTISRDNAKNTVYLQMNSLKPEDTAVYYCAADQFTGSVWAYYYWGQGTQVTVSS	high polyreactivity
QVQLVESGGGLVQAGGSLRLSCAASGRIFGAYAMGWYRQAPGKERELVAAITFRGGSTYYADSVKGRFTISRDNAKNTVYLQMNSLKPEDTAVYYCAADILDYLHIYDYWGQGTQVTVSS	low polyreactivity
QVQLVESGGGLVQAGGSLRLSCAASGRIFGEYALGWYRQDPGKERELVARISRSGGSTYADSVKGRFTISRDNAKNTVYFQMNSLKPEVTAVYYCNADAYGTPEFTSYAVRYDYWGQGTQVTVSS	low polyreactivity
QVQLVESGGGLVQAGGSLRLSCAASGRIFGFNAMGWYRQAPGKERELVAGITDSSGRTNYADSVKGRFTISRDNAKNTVYLEMNSLKPEDTAVLYCAKDGLVITAVGSDLWGHGTQVTVSS	low polyreactivity
QVQLVESGGGLVQAGGSLRLSCAASGRIFGGNAMGWYRQAPAKERELVAAISKRGGSTYYADSVKGRFTISRDNAKNTVYLQMNSLKPEDTAVDYCAATAYADQGLDYGYWGQGTQVTVSS	high polyreactivity
QVQLVESGGGLVQAGGSLRLSCAASGRIFGGNAMGWYRQAPGKERQLVAAISKRGGSTYYADSVKGRFTISRDNAKNTVYLQMNSLKPEDTAVYYCAATPYSDQGLDYGYWGQGTQVTVSS	high polyreactivity
QVQLVESGGGLVQAGGSLRLSCAASGRIFGGNAMVWYRQAPGKERELVAAITTRGGSTYADSVKGRFTISRDNAKNTVYLQMNSLKPEDSAVYYCNKRYVIRRRGYDYWGQGTQVTVSS	low polyreactivity
QVQLVESGGGLVQAGGSLRLSCAASGRIFGGYAMGWYRQAAGKERELVAAISRRGGSTYYADSVKGRFTISRDNAKNTVYLQMNSLKPEDTAVYYCNAVLSDQARLTRVDYDYWGQGTQVTVSS	high polyreactivity
QVQLVESGGGLVQAGGSLRLSCAASGRIFGGYAMGWYRQAPGKERELVAAIRDSGRTYYADSVKGRFTISRDNEKNTVYLQMNRLKPEDTAVYYCAADAHSSYSPFRWYDYWGQGSQVTVSS	low polyreactivity
QVQLVESGGGLVQAGGSLRLSCAASGRIFGGYAMGWYRQAPGKERELVAVISGRGGSTYYADSVKGRFTISRDNAMNTVYLQMNSLKPEDTAVYYCTVYRRIQRYGPQSYDYWGQGTQVTVSS	high polyreactivity
QVQLVESGGGLVQAGGSLRLSCAASGRIFGGYTMGWYRQAPGKEREFVAAITSSGGSTYYADSVKGRLTISRDNAKNTVYLQMNSLKPEDTAVYYCAVADYYDDYDYWGQGTQVTVSS	low polyreactivity
QVQLVESGGGLVQAGGSLRLSCAASGRIFGGYTMGWYRQAPGKERELVAAIRWSGGRTYYADSVKGRFTISRDNAKNTVYLQMNSLKPEDTAVYYCNRTPRYTIRYGYWGQGTQVTVSS	high polyreactivity
